pKd: −log10 of the molar value.
Columns and labels:
[1] = target: Biarylitide crosslinking cytochrome P450Blt; assay: UV-visible absorbance titration
[2] = target: Cytochrome P450 RufO (Streptomyces atratus); assay: UV-visible absorbance titration

Substance: Nle-RYLH (Nle-1), BytA pentapeptide MRYLH with norleucine in place of Met
- pKd [1]: 5.68
- pKd [2]: 6.08
